In US20240117030A1 (Pfizer, published 2024):
Where a chain is given by its changes, count along the chain named. Each block holds one binder with its values, some of them ahead of it.

How the values were obtained:
Assay in all cases: cell-based or functional assay
[1] = target: human IL-13 (human, UniProt P35225 35-146)
[2] = target: T1, human IL-4 (human, UniProt P05112 25-153)
T1 sequence (looked up): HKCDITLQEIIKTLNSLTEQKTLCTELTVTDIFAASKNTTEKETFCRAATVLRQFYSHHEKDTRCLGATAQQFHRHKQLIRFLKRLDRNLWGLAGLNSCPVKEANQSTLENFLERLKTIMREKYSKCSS

[3] = target: recombinant human IL-13 (human, UniProt P35225 35-146)
[4] = target: T2, recombinant human IL-4 (human, UniProt P05112 25-153)
T2 sequence (looked up): T1 sequence (looked up)

[5] = target: T3, recombinant human IL-33 (human, UniProt O95760 112-270, limits assumed)
T3 sequence (looked up): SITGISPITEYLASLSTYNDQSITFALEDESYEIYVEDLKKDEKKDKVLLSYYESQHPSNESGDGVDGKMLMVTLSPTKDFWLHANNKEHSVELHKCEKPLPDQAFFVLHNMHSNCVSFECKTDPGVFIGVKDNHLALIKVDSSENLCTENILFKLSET

Chain of human IL-13 (P35225 35-146 limits assumed): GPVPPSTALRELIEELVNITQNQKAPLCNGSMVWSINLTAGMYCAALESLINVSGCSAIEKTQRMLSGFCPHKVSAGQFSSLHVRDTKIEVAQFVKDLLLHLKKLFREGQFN
Chain of recombinant human IL-13 (P35225 35-146 limits assumed): as above

- a-hIL-13 bioassay (IC50, pM) [1]: 15.6 pM
- a-hIL-4 bioassay IC50, pM) [2]: 5.11 pM
B1: IL413TSLP-0248 (other)
heavy: EVQLVESGGGLVQPGGSLRLSCAASGFTFSSYAMSWVRQAPGKGLEWVASISSGDTTYYPDSVKGRFTISRDNAKNSLYLQMNSLRAEDTAVYYCARNEGYYFGLTLWGQGTLVTVSSASTKGPSVFPKAPSSKSTSGGTAALGCLVKDYFPEPVTVSWNSGALTSGVHTFPAVLQSSGLYSLSSSVTVPSSSLGTQTYICNVNHKPSNTKVDKKVEPKSCDKTHTCPPCPAPEAAGAPSVFLFPPKPKDTLMISRTPEVTCVVVDVSHEDPEVKFNWYVDGVEVHNAKTKPREEQYNSTYRVVSVLTVLHQDWLNGKEYKCKVSNKALPAPIEKTISKAKGQPREPQVCTLPPSREEMTKNQVSLWCLVKGFYPSDIAVEWESNGQPENNYKTTPPVLDSDGSFFLYSKLTVDKSRWQQGNVFSCSVMHEALHNHYTQKSLSLSPGK
chain 1: SYVLTQPPSVSVAPGQTARITCGGNNLGSKSVHWYQQKPGQAPVLVVYDDSDRPSWIPERFSGSNSGNTATLTISRGEAGDEADYYCQVWDSSSDHVVFGGGTKLTVLGQPKAAPSVTLFPPSSEELQANKATLVCLISDFYPGAVTVAWKADSSPVKAGVETTTPSKQSNNKYAASSYLSLTPEQWKSHRSYSCQVTHEGSTVEKTVAPTECSGGGGSEVTLRESGPALVKPTQTLTLTCTFSGFSLSNFGEGLSWIRQPPGKGLEWLAHIYWDDDKRYNPSLKSRLTISKDTSRNQVVLTMTNMDPVDTATYYCARRETVFYWYFDVWGQGTTVTVSSASTKGPSVFPEAPSSKSTSGGTAALGCLVKDYFPEPVTVSWNSGALTSGVHTFPAVLQSSGLYSLGSVVTVPSSSLGTQTYICNVNHKPSNTKVDKKVEPKSCDKTHTCPPCPAPEAAGAPSVFLFPPKPKDTLMISRTPEVTCVVVDVSHEDPEVKFNWYVDGVEVHNAKTKPREEQYNSTYRVVSVLTVLHQDWLNGKEYKCKVSNKALPAPIEKTISKAKGQPREPQVYTLPPCREEMTKNQVSLSCAVKGFYPSDIAVEWESNGQPENNYKTTPPVLDSDGSFFLVSKLTVDKSRWQQGNVFSCSVMHEALHNHYTQKSLSLSPGK
light 1: DIQMTQSPSSLSASVGDRVTITCKASESVDHFGWSLVHWYQQKPGKAPKLLIYRASNLESGVPSRFSGSGSGTDFTLTISSLQPEDFATYYCQQSNEDPWTFGGGTKVEIKRTVAAPSVFIFPPSDEQLKSGTASVSCLLNNFYPREAKVQWKVDNALQSGNSQESVTEQDSKDSTYSLDSTLTLSKADYEKHKVYACEVTHQGLSSPVTKSFNRGEC
light 2: B1 light 1 with E27Q, H31E, F32D, W34D, L36Y, V37M, H38N, R54A, W100P, D180K
chain 2: not shown

- IL-13 Induced CD23 Expression, potency of cytokine neutralization [3]: 0.00901 nM
- IL-4 Induced CD23 Expression, potency of cytokine neutralization [4]: 0.0103 nM
- IL-33 WT Activation of SEAP Reporter Cells, potency of cytokine neutralization [5]: 0.112 nM
B2: IL13433-0006 (other)
heavy: B1 heavy
chain 1: DIQMTQSPSSLSASVGDRVTITCKASQNINKHLDWYQQKPGKAPKLLIYFTNNLQTGVPSRFSGSGSGTDFTLTISSLQPEDFATYYCFQYNQGWTFGGGTKVEIKRTVAAPSVFIFPPSDEQLKSGTASVVCLLNNFYPREAKVQWKVDNALQSGNSQESVTEQDSKDSTYSLSSTLTLSKADYEKHKVYACEVTHQGLSSPVTKSFNRGECGGGGSEVTLRESGPALVKPTQTLTLTCTFSGFSLSNFGEGLSWIRQPPGKGLEWLAHIYWDDDKRYNPSLKSRLTISKDTSRNQVVLTMTNMDPVDTATYYCARRETVFYWYFDVWGQGTTVTVSSASTKGPSVFPEAPSSKSTSGGTAALGCLVKDYFPEPVTVSWNSGALTSGVHTFPAVLQSSGLYSLGSVVTVPSSSLGTQTYICNVNHKPSNTKVDKKVEPKSCDKTHTCPPCPAPEAAGAPSVFLFPPKPKDTLMISRTPEVTCVVVDVSHEDPEVKFNWYVDGVEVHNAKTKPREEQYNSTYRVVSVLTVLHQDWLNGKEYKCKVSNKALPAPIEKTISKAKGQPREPQVYTLPPCREEMTKNQVSLSCAVKGFYPSDIAVEWESNGQPENNYKTTPPVLDSDGSFFLVSKLTVDKSRWQQGNVFSCSVMHEALHNHYTQKSLSLSPGK
light 1: B1 light 1
light 2: B1 light 1 with E27Q, H31E, F32D, W34D, L36Y, V37M, H38N, R54A, W100P, D180K
chain 2: EVQLVESGGGLVQPGGSLRLSCAASGFTFSSYWMYWVRQAPGKGLEWVAAITPNAGEDYYPESVKGRFTISRDNAKNSLYLQMNSLRAEDTAVYYCARGHYYYTSYSLGYWGQGTLVTVSSASTKGPSVFPLAPSSKSTSGGTAALGCLVKDYFPEPVTVSWNSGALTSGVHTFPAVLQSSGLYSLSSVVTVPSSSLGTQTYICNVNHKPSNTKVDKKVEPKSC

- IL-13 Induced CD23 Expression, potency of cytokine neutralization [3]: 0.0124 nM
- IL-4 Induced CD23 Expression, potency of cytokine neutralization [4]: 0.0071 nM
- IL-33 WT Activation of SEAP Reporter Cells, potency of cytokine neutralization [5]: 0.028 nM
B3: IL13433-1042 (other)
heavy: EVQLVESGGGLVQPGGSLRLSCAASGFTFSSYWMYWVRQAPGKGLEWVAAITPNAGEDYYPESVKGRFTISRDNAKNSLYLQMNSLRAEDTAVYYCARGQYYYTKYSLGYWGQGTLVTVSSASTKGPSVFPLAPSSKSTSGGTAALGCLVKDYFPEPVTVSWNSGALTSGVHTFPAVLQSSGLYSLSSVVTVPSSSLGTQTYICNVNHKPSNTKVDKKVEPKSCRKTHTCPRCPAPEAAGAPSVFLFPPKPKDTLMISRTPEVTCVVVDVSHEDPEVKFNWYVDGVEVHNAKTKPREEQYNSTYRVVSVLTVLHQDWLNGKEYKCKVSNKALPAPIEKTISKAKGQPREPQVYTLPPSREEMTKNQVSLTCLVKGFYPSDIAVEWESNGQPENNYKTTPPVLDSDGSFFLYSRLTVDKSRWQQGNVFSCSVLHEALHSHYTQKSLSLSPGK
chain 1: DIQMTQSPSSLSASVGDRVTITCKASESVDHFGWSLVHWYQQKPGKAPKLLIYRASNLESGVPSRFSGSGSGTDFTLTISSLQPEDFATYYCQQSNEDPWTFGGGTKVEIKRTVAAPSVFIFPPSDEQLKSGTASVVCLLNNFYPREAKVQWKVDNALQSGNSQESVTEQDSKDSTYSLSSTLTLSKADYEKHKVYACEVTHQGLSSPVTKSFNRGECGGGGSEVTLRESGPALVKPTQTLTLTCTFSGFSLSNFGEGLSWIRQPPGKGLEWLAHIYWDDDKRYNPSLKSRLTISKDTSRNQVVLTMTNMDPVDTATYYCARRETVFYWYFDVWGQGTTVTVSSASTKGPSVFPLAPSSKSTSGGTAALGCLVKDYFPEPVTVSWNSGALTSGVHTFPAVLQSSGLYSLSSVVTVPSSSLGTQTYICNVNHKPSNTKVDKKVEPKSCEKTHTCPECPAPEAAGAPSVFLFPPKPKDTLMISRTPEVTCVVVDVSHEDPEVKFNWYVDGVEVHNAKTKPREEQYNSTYRVVSVLTVLHQDWLNGKEYKCKVSNKALPAPIEKTISKAKGQPREPQVYTLPPSREEMTKNQVSLTCEVKGFYPSDIAVEWESNGQPENNYKTTPPVLDSDGSFFLYSKLTVDKSRWQQGNVFSCSVLHEALHSHYTQKSLSLSPGK
light 1: DIQMTQSPSSLSASVGDRVTITCRASQPIHNHLDWYQQKPGKAPKLLIYFGKNLQEGVPSRFSGSGSGTDFTLTISSLQPEDFATYYCFQYKKGWSFGGGTKVEIKRTVAAPSVFIFPPSDEQLKSGTASVVCLLNNFYPREAKVQWKVDNALQSGNSQESVTEQDSKDSTYSLSSTLTLSKADYEKHKVYACEVTHQGLSSPVTKSFNRGEC
light 2: DIQMTQSPSSLSASVGDRVTITCRASQSVDEEGDSYMNWYQQKPGKAPKLLIYAASNLESGVPSRFSGSGSGTDFTLTISSLQPEDFATYYCQQSNEDPPTFGGGTKVEIKRTVAAPSVFIFPPSDEQLKSGTASVVCLLNNFYPREAKVQWKVDNALQSGNSQESVTEQDSKDSTYSLSSTLTLSKADYEKHKVYACEVTHQGLSSPVTKSFNRGEC
chain 2: EVQLVESGGGLVQPGGSLRLSCAASGFTFSSYAMSWVRQAPGKGLEWVASISSGDTTYYPDSVKGRFTISRDNAKNSLYLQMNSLRAEDTAVYYCARNEGYYFGLTLWGQGTLVTVSSASTKGPSVFPLAPSSKSTSGGTAALGCLVKDYFPEPVTVSWNSGALTSGVHTFPAVLQSSGLYSLSSVVTVPSSSLGTQTYICNVNHKPSNTKVDKKVEPKSC

- a-hIL-13 bioassay (IC50, pM) [1]: 102 pM
- a-hIL-4 bioassay IC50, pM) [2]: 3.68 pM
B4: IL413TSLP-0250 (other)
heavy: EVTLRESGPALVKPTQTLTLTCTFSGFSLSNFGEGLSWIRQPPGKGLEWLAHIYWDDDKRYNPSLKSRLTISKDTSRNQVVLTMTNMDPVDTATYYCARRETVFYWYFDVWGQGTTVTVSSASTKGPSVFPEAPSSKSTSGGTAALGCLVKDYFPEPVTVSWNSGALTSGVHTFPAVLQSSGLYSLGSVVTVPSSSLGTQTYICNVNHKPSNTKVDKKVEPKSCDKTHTCPPCPAPEAAGAPSVFLFPPKPKDTLMISRTPEVTCVVVDVSHEDPEVKFNWYVDGVEVHNAKTKPREEQYNSTYRVVSVLTVLHQDWLNGKEYKCKVSNKALPAPIEKTISKAKGQPREPQVYTLPPCREEMTKNQVSLSCAVKGFYPSDIAVEWESNGQPENNYKTTPPVLDSDGSFFLVSKLTVDKSRWQQGNVFSCSVMHEALHNHYTQKSLSLSPGK
chain 1: SYVLTQPPSVSVAPGQTARITCGGNNLGSKSVHWYQQKPGQAPVLVVYDDSDRPSWIPERFSGSNSGNTATLTISRGEAGDEADYYCQVWDSSSDHVVFGGGTKLTVLGQPKAAPSVTLFPPSSEELQANKATLVCLISDFYPGAVTVAWKADSSPVKAGVETTTPSKQSNNKYAASSYLSLTPEQWKSHRSYSCQVTHEGSTVEKTVAPTECSGGGGSEVQLVESGGGLVQPGGSLRLSCAASGFTFSSYAMSWVRQAPGKGLEWVASISSGDTTYYPDSVKGRFTISRDNAKNSLYLQMNSLRAEDTAVYYCARNEGYYFGLTLWGQGTLVTVSSASTKGPSVFPKAPSSKSTSGGTAALGCLVKDYFPEPVTVSWNSGALTSGVHTFPAVLQSSGLYSLSSSVTVPSSSLGTQTYICNVNHKPSNTKVDKKVEPKSCDKTHTCPPCPAPEAAGAPSVFLFPPKPKDTLMISRTPEVTCVVVDVSHEDPEVKFNWYVDGVEVHNAKTKPREEQYNSTYRVVSVLTVLHQDWLNGKEYKCKVSNKALPAPIEKTISKAKGQPREPQVCTLPPSREEMTKNQVSLWCLVKGFYPSDIAVEWESNGQPENNYKTTPPVLDSDGSFFLYSKLTVDKSRWQQGNVFSCSVMHEALHNHYTQKSLSLSPGK
light 1: B3 light 2 with R24K, E32D, V137S, S180K
light 2: B1 light 1
chain 2: not shown
